Columns and labels:
Details in all cases: both partners purified
His-OmpX = biological target: T1, His-OmpX (Escherichia coli, UniProt P0A917 24-171); assay: other fluorescence titration; intrinsic tryptophan fluorescence of the OMP (0.4 uM) titrated with increasing Spy or Skp; 40 mM HEPES, 150 mM NaCl, 0.24 M urea, pH 7.5; 25 C; excitation 295 nm, emission 305-400 nm
T1 construct: Unfolded: diluted from 8 M urea to 0.24 M urea for the assay; source: E. coli, from pET28b(+)-His-ompX, purified, kept in 8 M urea; not shown: 6xHis, N-terminal, kept
T1 sequence (looked up): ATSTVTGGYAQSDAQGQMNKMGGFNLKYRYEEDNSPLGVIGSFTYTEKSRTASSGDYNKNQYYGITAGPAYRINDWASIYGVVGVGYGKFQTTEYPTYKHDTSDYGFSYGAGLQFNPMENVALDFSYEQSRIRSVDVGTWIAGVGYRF

His-OmpC = biological target: T2, His-OmpC (Escherichia coli, UniProt P06996 22-367); assay: as above
T2 construct: Unfolded: diluted from 8 M urea to 0.24 M urea for the assay; source: E. coli, from pET28b(+)-His-ompC, purified, kept in 8 M urea; not shown: 6xHis, N-terminal, kept
T2 sequence (looked up): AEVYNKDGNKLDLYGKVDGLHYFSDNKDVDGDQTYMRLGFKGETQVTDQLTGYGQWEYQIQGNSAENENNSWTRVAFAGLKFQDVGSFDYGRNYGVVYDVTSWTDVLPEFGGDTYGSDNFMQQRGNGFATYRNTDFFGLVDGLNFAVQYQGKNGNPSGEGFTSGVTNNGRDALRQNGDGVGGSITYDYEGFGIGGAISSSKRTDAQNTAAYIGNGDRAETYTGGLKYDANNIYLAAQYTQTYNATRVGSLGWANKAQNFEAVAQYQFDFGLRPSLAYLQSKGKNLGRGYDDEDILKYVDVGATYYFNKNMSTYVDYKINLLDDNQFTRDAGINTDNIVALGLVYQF

His-OmpA = biological target: T3, His-OmpA (Escherichia coli, UniProt P0A910 22-346); assay: as above
T3 construct: Unfolded: diluted from 8 M urea to 0.24 M urea for the assay; source: E. coli, from pET28b(+)-His-ompA, purified, kept in 8 M urea; not shown: 6xHis, N-terminal, kept
T3 sequence (looked up): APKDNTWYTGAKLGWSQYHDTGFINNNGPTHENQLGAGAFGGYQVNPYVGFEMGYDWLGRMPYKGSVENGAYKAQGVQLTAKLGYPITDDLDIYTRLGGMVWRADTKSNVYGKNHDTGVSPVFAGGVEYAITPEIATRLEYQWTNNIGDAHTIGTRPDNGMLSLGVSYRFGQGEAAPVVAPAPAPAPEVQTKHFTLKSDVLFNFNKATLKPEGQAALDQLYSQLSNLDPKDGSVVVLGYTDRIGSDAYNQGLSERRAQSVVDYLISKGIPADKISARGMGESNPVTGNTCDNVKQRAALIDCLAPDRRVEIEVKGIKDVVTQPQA

His-LamB = biological target: T4, His-LamB (Escherichia coli, UniProt P02943 26-446); assay: as above
T4 construct: Unfolded: diluted from 8 M urea to 0.24 M urea for the assay; source: E. coli, from pET28b(+)-His-lamB, purified, kept in 8 M urea; not shown: 6xHis, N-terminal, kept

untagged OmpX = biological target: T5, untagged OmpX (Escherichia coli, UniProt P0A917 24-171); assay: NMR spectroscopy of assembled chaperone-OMP complexes; excess urea-denatured OMP added dropwise to the chaperone, supernatant concentrated; 2D [15N,1H]-TROSY or HSQC with one partner [U-2H,15N]-labelled; 25 mM MES, 50 mM NaCl, pH 6.5; 315 K (tOmpA-Spy also at 42, 26 and 15 C)
T5 construct: outer membrane protein OmpX of Escherichia coli; [U-2H,15N]-labelled in the TROSY experiments, unlabelled in the HSQC experiment with labelled Spy; source: E. coli, from pET28b(+)-ompX, purified from the insoluble pellet in 8 M urea (ion exchange)
T5 sequence (looked up): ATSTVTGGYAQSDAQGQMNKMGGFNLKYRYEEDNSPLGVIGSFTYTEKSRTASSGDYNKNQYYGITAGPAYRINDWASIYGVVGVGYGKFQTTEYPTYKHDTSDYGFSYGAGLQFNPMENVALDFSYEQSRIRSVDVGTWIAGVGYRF

Measured: binding result

T4 sequence (P02943 26-446): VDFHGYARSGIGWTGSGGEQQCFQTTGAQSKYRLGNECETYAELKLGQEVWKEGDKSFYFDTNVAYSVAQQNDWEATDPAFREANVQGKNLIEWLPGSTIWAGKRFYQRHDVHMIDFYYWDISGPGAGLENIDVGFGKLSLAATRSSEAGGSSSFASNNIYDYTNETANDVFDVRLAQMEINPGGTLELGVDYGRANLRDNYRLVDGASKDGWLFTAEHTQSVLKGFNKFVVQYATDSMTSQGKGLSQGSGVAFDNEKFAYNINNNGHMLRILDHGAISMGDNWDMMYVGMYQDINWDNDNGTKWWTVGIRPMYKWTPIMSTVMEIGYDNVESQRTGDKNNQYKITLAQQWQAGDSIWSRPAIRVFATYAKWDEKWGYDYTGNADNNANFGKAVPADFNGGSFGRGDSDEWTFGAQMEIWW

B1: seventeen-kilodalton protein (Skp) (natural protein, Escherichia coli, UniProt P0AEU7 21-161, looked up)
chain: ADKIAIVNMGSLFQQVAQKTGVSNTLENEFKGRASELQRMETDLQAKMKKLQSMKAGSDRTKLEKDVMAQRQTFAQKAQAFEQDRARRSNEERGKLVTRIQTAVKSVANSQDIDLVVDANAVAYNSSDVKDITADVLKQVK
notes: Skp, periplasmic chaperone of Escherichia coli; source: E. coli, from pET28b(+)-HisSUMO-skp, purified (6xHis-SUMO tag removed, cation exchange)
not listed: untagged OmpX
binds: all other assays above

B2: periplasmic chaperone Spy (natural protein, Escherichia coli, UniProt P77754 24-161, looked up)
chain: ADTTTAAPADAKPMMHHKGKFGPHQDMMFKDLNLTDAQKQQIREIMKGQRDQMKRPPLEERRAMHDIIASDTFDKVKAEAQIAKMEEQRKANMLAHMETQNKIYNILTPEQKKQFNANFEKRLTERPAAKGKMPATAE
notes: Spy, periplasmic chaperone of Escherichia coli; [U-2H,15N]-labelled in the HSQC experiment with unlabelled OmpX, unlabelled elsewhere; also called wild-type Spy; WT Spy; source: E. coli, from pET28b(+)-HisSUMO-spy, purified (6xHis-SUMO tag removed, cation exchange)
binds: all assays above

B3: Spy^Q100L (natural protein, Escherichia coli, UniProt P77754 24-161, looked up)
chain: ADTTTAAPADAKPMMHHKGKFGPHQDMMFKDLNLTDAQKQQIREIMKGQRDQMKRPPLEERRAMHDIIASDTFDKVKAEAQIAKMEEQRKANMLAHMETLNKIYNILTPEQKKQFNANFEKRLTERPAAKGKMPATAE
notes: Spy of Escherichia coli with Q100L; also called Q100L variant; source: E. coli, from pET28b(+)-HisSUMO-spy-Q100L, purified
binds: untagged OmpX
